Source: US20240034757A1 (OXFORD UNIVERSITY INNOVATION, published 2024)

T1: CXCL10_HUMAN (human, UniProt P02778 22-98)
T1 sequence: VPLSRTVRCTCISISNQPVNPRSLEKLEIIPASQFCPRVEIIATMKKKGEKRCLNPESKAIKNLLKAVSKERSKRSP

T2: CCL5_HUMAN (human, UniProt P13501 24-91)
T2 sequence: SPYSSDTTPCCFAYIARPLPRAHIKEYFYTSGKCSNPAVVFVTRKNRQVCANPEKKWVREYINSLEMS

T3: CCL8_HUMAN (human, UniProt P80075 24-99)
T3 sequence (looked up): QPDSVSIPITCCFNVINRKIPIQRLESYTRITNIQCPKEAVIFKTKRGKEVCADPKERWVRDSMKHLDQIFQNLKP

T4: CXCL1_HUMAN (human, UniProt P09341 35-107)
T4 sequence: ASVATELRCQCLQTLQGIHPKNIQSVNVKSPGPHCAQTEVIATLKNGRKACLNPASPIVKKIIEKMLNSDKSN

T5: CXCL8_HUMAN (human, UniProt P10145 28-99)
T5 sequence: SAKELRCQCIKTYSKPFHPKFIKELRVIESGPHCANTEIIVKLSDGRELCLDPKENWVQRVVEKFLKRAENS

T6: CXCL7_HUMAN (human, UniProt P02775 59-128)
T6 sequence: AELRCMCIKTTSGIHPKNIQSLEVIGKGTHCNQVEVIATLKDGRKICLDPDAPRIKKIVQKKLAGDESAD

T7: CXCL13_HUMAN (human, UniProt O43927 23-109)
T7 sequence: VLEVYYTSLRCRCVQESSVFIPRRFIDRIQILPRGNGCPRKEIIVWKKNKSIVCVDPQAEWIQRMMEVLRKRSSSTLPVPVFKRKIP

T8: CXCL14_HUMAN (human, UniProt O95715 35-111)
T8 sequence: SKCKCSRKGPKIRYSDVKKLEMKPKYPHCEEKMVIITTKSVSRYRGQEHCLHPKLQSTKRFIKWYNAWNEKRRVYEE

T9: CXCL9_HUMAN (human, UniProt Q07325 23-125)
T9 sequence: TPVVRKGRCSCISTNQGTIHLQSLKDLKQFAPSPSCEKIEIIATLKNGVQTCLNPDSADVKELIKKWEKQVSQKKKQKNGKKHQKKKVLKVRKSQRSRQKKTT

T10: mouse CXCL10 (mouse, UniProt P17515 22-98)
T10 sequence: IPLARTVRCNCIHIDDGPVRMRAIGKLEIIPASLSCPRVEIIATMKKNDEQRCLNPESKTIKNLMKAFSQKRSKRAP

T11: mouse CXCL1 (mouse, UniProt P12850 25-96)
T11 sequence: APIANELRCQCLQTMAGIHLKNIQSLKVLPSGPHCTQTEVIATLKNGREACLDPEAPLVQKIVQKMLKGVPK

T12: mouse CXCL2 (mouse, UniProt P10889 28-100)
T12 sequence: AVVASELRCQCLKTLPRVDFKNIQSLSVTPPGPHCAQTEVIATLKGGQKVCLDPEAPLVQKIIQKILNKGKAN

B1: P1820 (P1142:G4S:P1156:G4S:P467) (designed binder)
chain: KPQILQRTDHSTDSDWDPQMCPETCNPSKNISCSSECLCVTLGGGDETGTCFNMSGVDWLGHAQASDGHNDGGGGGSADDDNELFTVQYCGMNCTKDEGGTWTGCTGKKEGCKCYHESGKNYGLCLSTEYTDFSQYGNPSDSEIEAAKPKRSDTLSHGGGGSAEKSLDSDSSGEDYELWTQGCPFLVAENRTGFGTTVSCQHNCNGAIEKVPEGEPCYTIGEDGLGRMKLNLPYNCSLGECSGGVCVPNGRSDVCFKRTWEENNKAMA
B2: P1821 (P1142:G4S:P1156:G4S:P991) (designed binder)
chain: KPQILQRTDHSTDSDWDPQMCPETCNPSKNISCSSECLCVTLGGGDETGTCFNMSGVDWLGHAQASDGHNDGGGGGSADDDNELFTVQYCGMNCTKDEGGTWTGCTGKKEGCKCYHESGKNYGLCLSTEYTDFSQYGNPSDSEIEAAKPKRSDTLSHGGGGSENGEGTTQPDYDNSTDYYNYEDFKCTCPAPHLNNTNGTVMKPIGCYYTCNVTRCTAPDTYPCYNLTEHQAKNLTTSPTTLCAVGNCDHGICVPNGTKELCFKAPNLEE
B3: P1142_AMBCA (other)
chain: KPQILQRTDHSTDSDWDPQMCPETCNPSKNISCSSECLCVTLGGGDETGTCFNMSGVDWLGHAQASDGHNDG
B4: P672:EVA1 (P672_RHIPU (1-44): EVA1_RHISA (29-94)) (designed binder)
chain: VCEVSEQEGVGEDNATEDEDYEDFFKPVTCYFANSTVGPLRPPNCKQDCNGTTETAPNGTRCFSIGDEGLRRMTANLPYDCPLGQCSNGDCIPKETYEVCYRRNWRDEKN
B5: Evasin-1 peptide variant K92E encoded by EZ406190.1 (other)
chain: EDDEDYGDLGGCPFLVAENKTGYPTIVACKQDCNGTTETAPNGTRCFSIGDEGLRRMTANLPYDCPLGQCSNGDCIPKETYEVCYRRNWRDEKN
notes: also called Evasin-1 (EZ406190.1)
B6: P1126_AMBCA (other)
chain: KPQILQRTDKSTDSEWDPQTCPETCIPSKNITCSDGCVCVKLGEEEEGTCFNMTGVDWLGSPSDD

How the values were obtained:
[1] = biological target: T1, CXCL10_HUMAN; assay: BLI, evasin immobilised
[2] = biological target: T2, CCL5_HUMAN; assay: BLI, evasin immobilised
[3] = biological target: T3, CCL8_HUMAN; assay: BLI, evasin immobilised
[4] = biological target: CCL2_HUMAN (human, UniProt P13500 24-99); assay: BLI, evasin immobilised
Chain of CCL2_HUMAN (P13500 24-99 limits assumed): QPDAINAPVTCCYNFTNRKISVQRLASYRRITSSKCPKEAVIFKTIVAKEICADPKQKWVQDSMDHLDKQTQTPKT

[5] = biological target: T4, CXCL1_HUMAN; assay: BLI, evasin immobilised
[6] = biological target: T5, CXCL8_HUMAN; assay: BLI, evasin immobilised
[7] = biological target: T1, CXCL10_HUMAN; assay: yeast surface display FACS re-test; also: test concentration or dose not given here
[8] = biological target: T6, CXCL7_HUMAN; assay: yeast surface display FACS re-test; also: test concentration or dose not given here
[9] = biological target: T7, CXCL13_HUMAN; assay: BLI
[10] = biological target: T8, CXCL14_HUMAN; assay: BLI
[11] = biological target: CXCL12_HUMAN (human, UniProt P48061 22-89); assay: BLI
Chain of CXCL12_HUMAN (P48061 22-89 limits assumed): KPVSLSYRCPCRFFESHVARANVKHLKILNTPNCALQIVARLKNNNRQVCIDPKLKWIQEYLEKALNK

[12] = biological target: T9, CXCL9_HUMAN; assay: BLI
[13] = biological target: T5, CXCL8_HUMAN; assay: BLI [Cont.]
[14] = biological target: T10, mouse CXCL10; assay: cell-based or functional assay
[15] = biological target: T11, mouse CXCL1; assay: cell-based or functional assay
[16] = biological target: T12, mouse CXCL2; assay: cell-based or functional assay
[17] = biological target: T3, CCL8_HUMAN; assay: BLI
[18] = biological target: T3, CCL8_HUMAN; assay: cell-based or functional assay

Row | Binder | Kd [1] [nM] | Kd [2] [nM] | Kd [3] [nM] | Kd [4] [nM] | Kd [5] [nM] | Kd [6] [nM] | % cells over threshold fluorescence [7] [%] | % cells over threshold fluorescence [8] [%] | binding result [9] | binding result [10] | binding result [11] | binding result [13] | further results
1 | B1 | 1.01 | 0.41 | 18.2 | 2.86 | 1.12 | 1.11 | – | – | – | – | – | – | –
2 | B2 | 1.44 | 0.001 | 14.1 | 11.8 | 1.86 | 1.55 | – | – | – | – | – | – | –
3 | B3 | – | – | – | – | – | – | 80 | 71 | no binding (tested: 300 nM) | no binding (tested: 300 nM) | no binding (tested: 300 nM) | no binding (tested: 300 nM) | binding result [12]: no binding (tested: 300 nM); IC50, activated mouse T cell migration [14]: 3.37 nM; IC50, mouse bone marrow granulocyte cell migration [15]: 2.15 nM; IC50, mouse bone marrow granulocyte cell migration [16]: 0.66 nM
4 | B4 | – | – | – | – | – | – | – | – | – | – | – | – | Kd [17]: 223 nM; IC50, CCL8 induced THP-1 monocyte cell migration [18]: 48 nM
5 | B5 | – | – | – | – | – | – | – | – | – | – | – | – | binding result [17]: no binding (tested: 300 nM)
6 | B6 | – | – | – | – | – | – | 66 | 74 | no binding (tested: 300 nM) | no binding (tested: 300 nM) | no binding (tested: 300 nM) | no binding (tested: 300 nM) | –
